Data as given in publication PMC4070737.

Target: T1, full-length human EB1 (human), Q15691
T1 chain: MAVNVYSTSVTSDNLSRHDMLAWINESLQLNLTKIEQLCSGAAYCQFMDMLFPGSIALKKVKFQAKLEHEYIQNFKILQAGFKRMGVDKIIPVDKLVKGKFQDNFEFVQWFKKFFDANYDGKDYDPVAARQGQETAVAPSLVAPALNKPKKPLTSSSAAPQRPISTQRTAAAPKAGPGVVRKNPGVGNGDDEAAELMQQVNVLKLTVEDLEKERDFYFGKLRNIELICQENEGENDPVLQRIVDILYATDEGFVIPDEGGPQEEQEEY
Assay: AUC
Conditions: remark: other sources report otherwise

B1: full-length human EB1, Q15691 1-268 (natural protein)
chain: MAVNVYSTSVTSDNLSRHDMLAWINESLQLNLTKIEQLCSGAAYCQFMDMLFPGSIALKKVKFQAKLEHEYIQNFKILQAGFKRMGVDKIIPVDKLVKGKFQDNFEFVQWFKKFFDANYDGKDYDPVAARQGQETAVAPSLVAPALNKPKKPLTSSSAAPQRPISTQRTAAAPKAGPGVVRKNPGVGNGDDEAAELMQQVNVLKLTVEDLEKERDFYFGKLRNIELICQENEGENDPVLQRIVDILYATDEGFVIPDEGGPQEEQEEY
Kd: 88.5 nM
stoichiometry N: 2
